The values that follow come from ChEMBL document CHEMBL1153299, “Carbonic anhydrase activators: activation of the beta-carbonic anhydrase Nce103 from the yeast Saccharomyces cerevisiae with amines and amino acids” (Bioorg Med Chem Lett, 2009).

Substrate in the series: NCCc1c[nH]cn1
To be noted: Saccharomyces cerevisiae.

Description: Activity at yeast recombinant CA expressed in Escherichia coli

B1: Carbonic anhydrase (Saccharomyces cerevisiae S288c), P53615 (protein)
chain: MSATESSSIFTLSHNSNLQDILAANAKWASQMNNIQPTLFPDHNAKGQSPHTLFIGCSDSRYNENCLGVLPGEVFTWKNVANICHSEDLTLKATLEFAIICLKVNKVIICGHTDCGGIKTCLTNQREALPKVNCSHLYKYLDDIDTMYHEESQNLIHLKTQREKSHYLSHCNVKRQFNRIIENPTVQTAVQNGELQVYGLLYNVEDGLLQTVSTYTKVTPK
As for B1, the kcat came to 19.6 ×10⁵ /s.
